Test results taken from article PMC3059353.

Substrate: Nc1ncnc2nc[nH]c12
Assay: steady-state kinetics of purified enzyme, GDH-coupled ammonia assay
Assay type: biochemical, Agrobacterium fabrum
Settings: binuclear Mn2+ active site at binuclear metal center (adenine pose only modeled)

B1: adenine deaminase Atu4426 (Agrobacterium fabrum str. C58) (protein)
chain: MTAQIRLAEPADLNDDTLRARAVAAARGDQRFDVLITGGTLVDVVTGELRPADIGIVGALIASVHEPASRRDAAQVIDAGGAYVSPGLIDTHMHIESSMITPAAYAAAVVARGVTTIVWDPHEFGNVHGVDGVRWAAKAIENLPLRAILLAPSCVPSAPGLERGGADFDAAILADLLSWPEIGGIAEIMNMRGVIERDPRMSGIVQAGLAAEKLVCGHARGLKNADLNAFMAAGVSSDHELVSGEDLMAKLRAGLTIELRGSHDHLLPEFVAALNTLGHLPQTVTLCTDDVFPDDLLQGGGLDDVVRRLVRYGLKPEWALRAATLNAAQRLGRSDLGLIAAGRRADIVVFEDLNGFSARHVLASGRAVAEGGRMLVDIPTCDTTVLKGSMKLPLRMANDFLVKSQGAKVRLATIDRPRFTQWGETEADVKDGFVVPPEGATMISVTHRHGMAEPTTKTGFLTGWGRWNGAFATTVSHDSHNLTVFGGNAGDMALAANAVIGTGGGMAVASEGKVTAILPLPLSGLVSDAPLEEVARAFEDLREAVGKVVEWQPPYLVFKACFGATLACNIGPHQTDMGIADVLTGKVMESPVIEVLG
Km: 320 ± 40 µM
